According to publication PMC8340551 (The Journal of Cell Biology, 2021):

Target: T1, FHL2-Flag (UniProt Q14192 1-279)
T1 sequence (looked up): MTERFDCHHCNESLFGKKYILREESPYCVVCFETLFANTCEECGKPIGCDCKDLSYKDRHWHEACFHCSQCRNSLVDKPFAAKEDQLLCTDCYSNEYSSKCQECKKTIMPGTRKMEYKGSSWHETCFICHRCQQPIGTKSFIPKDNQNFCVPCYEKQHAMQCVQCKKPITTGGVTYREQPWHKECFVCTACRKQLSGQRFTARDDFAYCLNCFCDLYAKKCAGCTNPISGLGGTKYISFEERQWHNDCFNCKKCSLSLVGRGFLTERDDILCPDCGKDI
Test: co-IP

- fold more co-precipitated with OGT overexpression than with OGA overexpression: 5 fold
B1: Myc-TRAK1 (Myc-TRAK1^WT) (natural protein, UniProt Q9UPV9 1-953, looked up)
chain: MALVFQFGQPVRAQPLPGLCHGKLIRTNACDVCNSTDLPEVEIISLLEEQLPHYKLRADTIYGYDHDDWLHTPLISPDANIDLTTEQIEETLKYFLLCAERVGQMTKTYNDIDAVTRLLEEKERDLELAARIGQSLLKKNKTLTERNELLEEQVEHIREEVSQLRHELSMKDELLQFYTSAAEESEPESVCSTPLKRNESSSSVQNYFHLDSLQKKLKDLEEENVVLRSEASQLKTETITYEEKEQQLVNDCVKELRDANVQIASISEELAKKTEDAARQQEEITHLLSQIVDLQKKAKACAVENEELVQHLGAAKDAQRQLTAELRELEDKYAECMEMLHEAQEELKNLRNKTMPNTTSRRYHSLGLFPMDSLAAEIEGTMRKELQLEEAESPDITHQKRVFETVRNINQVVKQRSLTPSPMNIPGSNQSSAMNSLLSSCVSTPRSSFYGSDIGNVVLDNKTNSIILETEAADLGNDERSKKPGTPGTPGSHDLETALRRLSLRRENYLSERRFFEEEQERKLQELAEKGELRSGSLTPTESIMSLGTHSRFSEFTGFSGMSFSSRSYLPEKLQIVKPLEGSATLHHWQQLAQPHLGGILDPRPGVVTKGFRTLDVDLDEVYCLNDFEEDDTGDHISLPRLATSTPVQHPETSAHHPGKCMSQTNSTFTFTTCRILHPSDELTRVTPSLNSAPTPACGSTSHLKSTPVATPCTPRRLSLAESFTNTRESTTTMSTSLGLVWLLKERGISAAVYDPQSWDRAGRGSLLHSYTPKMAVIPSTPPNSPMQTPTSSPPSFEFKCTSPPYDNFLASKPASSILREVREKNVRSSESQTDVSVSNLNLVDKVRRFGVAKVVNSGRAHVPTLTEEQGPLLCGPPGPAPALVPRGLVPEGLPLRCPTVTSAIGGLQLNSGIRRNRSFPTMVGSSMQMKAPVTLTSGILMGAKLSKQTSLR
modifications: O-GlcNAc on serine and threonine residues (sites not given), more with co-expressed OGT, less with co-expressed OGA
